Drawing on paper PMC4954732, this text covers Kd and fold decrease in affinity (fold lower affinity than cyp51A-293) for 4 sequences.

The target of data set [1] is T1, SrbA bHLHZ (Aspergillus fumigatus) (UniProt Q4WIN1).
T1 sequence: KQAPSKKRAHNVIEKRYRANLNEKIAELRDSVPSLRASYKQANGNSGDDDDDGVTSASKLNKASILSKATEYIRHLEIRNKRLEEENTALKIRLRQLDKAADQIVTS
Description: SPR. The conditions noted are these: SPR on immobilised biotinylated duplexes, 1:1 model with mass transport; buffer, salt, pH and temperature not stated (protocols of refs 19, 54).

The test system of data set [2] is CBC (HapB/HapC/HapE) (Aspergillus fumigatus). The experiment in a line: SPR. The conditions noted are these: SPR on immobilised biotinylated duplexes, 1:1 model with mass transport; buffer, salt, pH and temperature not stated (protocols of refs 19, 54).

As for “AGAATCACGCGGTCCG (double strand) [SRE1 (cyp51Ap-320-16)]”, the Kd in data set [1] was determined as 22.8 nM.

As for “CGGCTCAGCACACATC (double strand) [SRE2 (cyp51Ap-295-16)]”, in data set [1], the Kd was 273 nM. For “GCTGAGCCGAATGAAAGTTGCCTAATTACTAAGGTGT (double strand) [cyp51A-293]”, the Kd in data set [2] was determined as 74.4 nM. As for “GCTGAGCCGAATGAATCACGCGGTCCGGATGTGTGCT (double strand) [cyp51A-TR34]”, the fold decrease in affinity (fold lower affinity than cyp51A-293) in data set [2] was 8.
